Reference: patent US20020103111A1, “Inhibitors of MAdCAM-1-mediated interactions and methods of use therefor” (Millennium Pharmaceuticals, Inc., priority 1996, published 2002)
Several values for one entry are separate records, joined by “and”; a condition that tells them apart may be missing. Identical values can stand only once. Bridge positions count the residues as written; N and C are the ends. Ends that are not written are not given here. * marks the point of attachment. Butanoyl(4-pyren-1-yl) = O=C(CCCc1ccc2ccc3cccc4ccc1c2c34)*; Tpa = triphenylacetyl, O=C(C(c1ccccc1)(c1ccccc1)c1ccccc1)*; Acetyl(1-pyrenyl) = O=C(Cc1ccc2ccc3cccc4ccc1c2c34)*; Phenylacetyl(4-Ph) = O=C(Cc1ccc(-c2ccccc2)cc1)*; Benzoyl(4-heptyl) = CCCCCCCc1ccc(C(=O)*)cc1; Acetyl(1-naphthyl) = O=C(Cc1cccc2ccccc12)*; Diphenylacetyl = O=C(C(c1ccccc1)c1ccccc1)*; cPrCO(2,2,3,3-Me4) = CC1(C)C(C(=O)*)C1(C)C; Ibuprofenoyl = CC(C)Cc1ccc(C(C)C(=O)*)cc1; Hexanoyl(6-Ph) = O=C(CCCCCc1ccccc1)*; PhAc = O=C(Cc1ccccc1)*

What was measured:
[1] = target: human α4β7 integrin (human) (UniProt P13612); assay: inhibition of HUT 78 cell adhesion to murine MAdCAM-1/mCk
[2] = target: human α4β7 integrin (human) (UniProt P13612); assay: inhibition of HUT 78 cell adhesion to murine MAdCAM-1/mCk at 500 µM
[3] = target: human α4β7 integrin (human), P13612; assay: inhibition of HUT 78 cell adhesion to murine MAdCAM-1/mCk
[4] = target: human α4β7 integrin (human), P13612; assay: inhibition of HUT 78 cell adhesion to murine MAdCAM-1/mCk at 500 µM
[5] = target: human α4β7 integrin (human), P13612; assay: inhibition of RPMI 8866 cell adhesion to huMAdCAM-1-Ig
[6] = target: human α4β7 integrin (human), P13612; assay: inhibition of HUT 78 cell adhesion to murine MAdCAM-1/mCk at 250 µM
[7] = target: human α4β7 integrin (human) (UniProt P13612); assay: inhibition of HUT 78 cell adhesion to murine MAdCAM-1/mCk at 50 µM

Row | Binder | IC50 [1] | IC50 [3] [µM] | % Adhesion Inhibition [4] [%] | other results
1 | PhAc-LDTSL (not fully specified (C-terminus); printed as Pha-Leu-Asp-Thr-Ser-Leu) [Pha-Leu-Asp-Thr-Ser-Leu] | 2130 µM | – | – | % Adhesion Inhibition [2]: 38%
2 | Ac-RGLDT (not fully specified (C-terminus); printed as Ac-Arg-Gly-Leu-Asp-Thr) [Ac-Arg-Gly-Leu-Asp-Thr] | – | 542 | 48 | –
3 | {Benzoyl(4-heptyl)}-LDTSL (not fully specified (C-terminus); printed as Hbz-Leu-Asp-Thr-Ser-Leu) [Hbz-Leu-Asp-Thr-Ser-Leu] | 401 µM | – | – | % Adhesion Inhibition [2]: 51%
4 | Ac-WRGLDT (not fully specified (C-terminus); printed as Ac-Trp-Arg-Gly-Leu-Asp-Thr) [Ac-Trp-Arg-Gly-Leu-Asp-Thr] | – | 725 | 46 | –
5 | Ac-LDASL (not fully specified (C-terminus); printed as Ac-Leu-Asp-Ala-Ser-Leu) [Ac-Leu-Asp-Ala-Ser-Leu] | – | 1000 | 47 | –
6 | Ac-HWRGLDT (not fully specified (C-terminus); printed as Ac-His-Trp-Arg-Gly-Leu-Asp-Thr) [Ac-His-Trp-Arg-Gly-Leu-Asp-Thr] | – | 584 | 49 | –
7 | LDTSL (modifications not checked) [R1-Leu-Asp-Thr-Ser-Leu, L# 1491 (Table 4)] | – | – | – | IC50 [5]: 3.4 µM
8 | Ac-RGLDTSL (not fully specified (C-terminus); printed as Ac-Arg-Gly-Leu-Asp-Thr-Ser-Leu) [Ac-Arg-Gly-Leu-Asp-Thr-Ser-Leu] | – | 1580 | 35 | –
9 | LYTSL (modifications not checked) [Pba-Leu-Tyr-Thr-Ser-Leu] | – | 30 | 100 | –
10 | Ac-LDVSL (not fully specified (C-terminus); printed as Ac-Leu-Asp-Val-Ser-Leu) [Ac-Leu-Asp-Val-Ser-Leu] | – | 71 | – | –
11 | Ibuprofenoyl-LDTSL (not fully specified (C-terminus); printed as Impa-Leu-Asp-Thr-Ser-Leu) [Impa-Leu-Asp-Thr-Ser-Leu] | 1140 µM | – | – | % Adhesion Inhibition [2]: 44%
12 | {cPrCO(2,2,3,3-Me4)}-LDTSL [Tpc-Leu-Asp-Thr-Ser-Leu] | 121 µM | – | – | % Adhesion Inhibition [2]: 39%
13 | Ac-WRGLDTS (not fully specified (C-terminus); printed as Ac-Trp-Arg-Gly-Leu-Asp-Thr-Ser) [Ac-Trp-Arg-Gly-Leu-Asp-Thr-Ser] | – | 862 | 44 | –
14 | Ac-LDTSF (not fully specified (C-terminus); printed as Ac-Leu-Asp-Thr-Ser-Phe) [Ac-Leu-Asp-Thr-Ser-Phe] | – | 144 | 86 | –
15 | Ac-CLDTSLC (disulfide 1-7) [Ac-Cys*-Leu-Asp-Thr-Ser-Leu-Cys*] | – | 102 | – | % Adhesion Inhibition [6]: 51%
16 | {Acetyl(1-naphthyl)}-LDTSL (not fully specified (C-terminus); printed as Npa-Leu-Asp-Thr-Ser-Leu) [Npa-Leu-Asp-Thr-Ser-Leu] | 548 µM | – | – | % Adhesion Inhibition [2]: 39%
17 | {Phenylacetyl(4-Ph)}-LDTSL (not fully specified (C-terminus); printed as Bipa-Leu-Asp-Thr-Ser-Leu) [Bipa-Leu-Asp-Thr-Ser-Leu] | 485 µM | – | – | % Adhesion Inhibition [2]: 54%

Row | Binder | IC50 [1] | IC50 [3] [µM] | % Adhesion Inhibition [4] [%] | other results
18 | Ac-GLDTSL (not fully specified (C-terminus); printed as Ac-Gly-Leu-Asp-Thr-Ser-Leu) [Ac-Gly-Leu-Asp-Thr-Ser-Leu] | – | 339 | 58 | –
19 | {Acetyl(1-pyrenyl)}-LDTSL (not fully specified (C-terminus); printed as Paa-Leu-Asp-Thr-Ser-Leu) [Paa-Leu-Asp-Thr-Ser-Leu] | 0.5 µM | – | – | –
20 | Tpa-LDTSL [Tpa-Leu-Asp-Thr-Ser-Leu] | 0.3 µM | – | – | –
21 | Ac-LETSL (not fully specified (C-terminus); printed as Ac-Leu-Glu-Thr-Ser-Leu) [Ac-Leu-Glu-Thr-Ser-Leu] | – | 60.7 | 98 | –
22 | PLDTSL (modifications not checked) [Pba-Pro-Leu-Asp-Thr-Ser-Leu] | – | 47 | – | –
23 | Ac-LDTSL-NH2 [Ac-Leu-Asp-Thr-Ser-Leu] | 530 µM and 278 µM | – | – | % Adhesion Inhibition [2]: 50% and 71%
24 | {Butanoyl(4-pyren-1-yl)}-LDTSL (not fully specified (C-terminus); printed as Pba-Leu-Asp-Thr-Ser-Leu) [Pba-Leu-Asp-Thr-Ser-Leu (00386-1A)] | 2.8 µM | – | – | % Adhesion Inhibition [7]: 88%
25 | Diphenylacetyl-LDTSL (not fully specified (C-terminus); printed as Dpa-Leu-Asp-Thr-Ser-Leu) [Dpa-Leu-Asp-Thr-Ser-Leu] | 11 µM | – | – | –
26 | Ac-LDTSL (not fully specified (C-terminus); printed as Ac-Leu-Asp-Thr-Ser-Leu) [Ac-Leu-Asp-Thr-Ser-Leu (00389-1A)] | 205 µM | – | – | % Adhesion Inhibition [2]: 29%
27 | {Hexanoyl(6-Ph)}-LDTSL (not fully specified (C-terminus); printed as Phx-Leu-Asp-Thr-Ser-Leu) [Phx-Leu-Asp-Thr-Ser-Leu] | 818 µM | – | – | % Adhesion Inhibition [2]: 32%
28 | Ac-GLDTS (not fully specified (C-terminus); printed as Ac-Gly-Leu-Asp-Thr-Ser) [Ac-Gly-Leu-Asp-Thr-Ser] | – | 745 | 43 | –
29 | Ac-RGLDTS (not fully specified (C-terminus); printed as Ac-Arg-Gly-Leu-Asp-Thr-Ser) [Ac-Arg-Gly-Leu-Asp-Thr-Ser] | – | 1790 | 31 | –
30 | LATSL (modifications not checked) [Pba-Leu-Ala-Thr-Ser-Leu] | – | 28 | – | % Adhesion Inhibition [6]: 100%
31 | Ac-LDSSL (not fully specified (C-terminus); printed as Ac-Leu-Asp-Ser-Ser-Leu) [Ac-Leu-Asp-Ser-Ser-Leu] | – | 611 | 38 | –
32 | Ac-LDTTL (not fully specified (C-terminus); printed as Ac-Leu-Asp-Thr-Thr-Leu) [Ac-Leu-Asp-Thr-Thr-Leu] | – | 101 | 98 | –
33 | Ac-LFTSL (not fully specified (C-terminus); printed as Ac-Leu-Phe-Thr-Ser-Leu) [Ac-Leu-Phe-Thr-Ser-Leu] | – | 300 | 29 | –
